IntAct's records for PubMed 29892012

B1: TBC1 domain family member 22B (Homo sapiens), Q9NU19 (parent)
chain: MAAENSKQFWKRSAKLPGSIQPVYGAQHPPLDPRLTKNFIKERSKVNTVPLKNKKASSFHEFARNTSDAWDIGDDEEEDFSSPSFQTLNSKVALATAAQVLENHSKLRVKPERSQSTTSDVPANYKVIKSSSDAQLSRNSSDTCLRNPLHKQQSLPLRPIIPLVARISDQNASGAPPMTVREKTRLEKFRQLLSSQNTDLDELRKCSWPGVPREVRPITWRLLSGYLPANTERRKLTLQRKREEYFGFIEQYYDSRNEEHHQDTYRQIHIDIPRTNPLIPLFQQPLVQEIFERILFIWAIRHPASGYVQGINDLVTPFFVVFLSEYVEEDVENFDVTNLSQDMLRSIEADSFWCMSKLLDGIQDNYTFAQPGIQKKVKALEELVSRIDEQVHNHFRRYEVEYLQFAFRWMNNLLMRELPLRCTIRLWDTYQSEPEGFSHFHLYVCAAFLIKWRKEILDEEDFQGLLMLLQNLPTIHWGNEEIGLLLAEAYRLKYMFADAPNHYRR
partner: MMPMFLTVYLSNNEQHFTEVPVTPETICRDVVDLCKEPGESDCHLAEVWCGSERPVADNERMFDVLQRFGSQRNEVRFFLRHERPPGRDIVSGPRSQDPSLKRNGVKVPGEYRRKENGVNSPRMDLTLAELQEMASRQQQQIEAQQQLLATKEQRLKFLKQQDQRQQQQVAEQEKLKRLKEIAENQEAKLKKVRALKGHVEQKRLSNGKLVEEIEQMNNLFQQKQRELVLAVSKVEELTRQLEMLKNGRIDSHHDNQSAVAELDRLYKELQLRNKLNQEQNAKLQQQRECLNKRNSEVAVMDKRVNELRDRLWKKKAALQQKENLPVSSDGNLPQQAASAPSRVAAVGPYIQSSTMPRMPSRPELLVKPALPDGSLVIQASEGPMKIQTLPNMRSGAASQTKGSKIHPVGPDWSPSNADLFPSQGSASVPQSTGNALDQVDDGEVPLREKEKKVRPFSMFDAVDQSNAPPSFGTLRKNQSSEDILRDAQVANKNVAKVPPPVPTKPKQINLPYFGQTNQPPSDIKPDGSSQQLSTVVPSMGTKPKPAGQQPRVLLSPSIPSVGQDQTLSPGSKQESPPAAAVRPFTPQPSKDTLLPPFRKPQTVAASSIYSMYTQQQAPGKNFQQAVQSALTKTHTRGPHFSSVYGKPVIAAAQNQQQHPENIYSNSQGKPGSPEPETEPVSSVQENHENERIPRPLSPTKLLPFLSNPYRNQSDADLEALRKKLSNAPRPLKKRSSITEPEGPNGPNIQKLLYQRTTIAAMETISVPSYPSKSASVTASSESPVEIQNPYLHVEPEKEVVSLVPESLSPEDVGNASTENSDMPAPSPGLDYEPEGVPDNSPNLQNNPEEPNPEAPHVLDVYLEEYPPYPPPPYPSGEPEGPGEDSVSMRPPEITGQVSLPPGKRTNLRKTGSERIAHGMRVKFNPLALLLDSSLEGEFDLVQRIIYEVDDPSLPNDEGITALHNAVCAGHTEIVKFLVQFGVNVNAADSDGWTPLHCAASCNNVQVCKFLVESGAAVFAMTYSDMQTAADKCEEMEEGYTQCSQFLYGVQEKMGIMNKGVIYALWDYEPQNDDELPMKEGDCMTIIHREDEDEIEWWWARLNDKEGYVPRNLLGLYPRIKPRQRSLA
B2: Glutaredoxin-3 (Homo sapiens), O76003 (parent)
chain: MAAGAAEAAVAAVEEVGSAGQFEELLRLKAKSLLVVHFWAPWAPQCAQMNEVMAELAKELPQVSFVKLEAEGVPEVSEKYEISSVPTFLFFKNSQKIDRLDGAHAPELTKKVQRHASSGSFLPSANEHLKEDLNLRLKKLTHAAPCMLFMKGTPQEPRCGFSKQMVEILHKHNIQFSSFDIFSDEEVRQGLKAYSSWPTYPQLYVSGELIGGLDIIKELEASEELDTICPKAPKLEERLKVLTNKASVMLFMKGNKQEAKCGFSKQILEILNSTGVEYETFDILEDEEVRQGLKAYSNWPTYPQLYVKGELVGGLDIVKELKENGELLPILRGEN
partner: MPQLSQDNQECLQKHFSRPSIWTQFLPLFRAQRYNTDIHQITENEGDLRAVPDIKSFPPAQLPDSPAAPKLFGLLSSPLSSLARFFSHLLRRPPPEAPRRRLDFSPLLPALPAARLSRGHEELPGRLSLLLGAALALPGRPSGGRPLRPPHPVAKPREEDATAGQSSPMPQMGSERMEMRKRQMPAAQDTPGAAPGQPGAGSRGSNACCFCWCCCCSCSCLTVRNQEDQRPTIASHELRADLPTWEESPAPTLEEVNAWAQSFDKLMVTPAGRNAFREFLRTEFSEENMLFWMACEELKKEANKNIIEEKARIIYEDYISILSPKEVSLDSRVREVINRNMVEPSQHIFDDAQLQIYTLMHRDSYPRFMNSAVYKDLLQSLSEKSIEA
B3: Ribosome assembly protein METTL17, mitochondrial (Homo sapiens), Q9H7H0 (parent)
chain: MAAALKCLLTLGRWCPGLGVAPQARALAALVPGVTQVDNKSGFLQKRPHRQHPGILKLPHVRLPQALANGAQLLLLGSAGPTMENQVQTLTSYLWSRHLPVEPEELQRRARHLEKKFLENPDLSQTEEKLRGAVLHALRKTTYHWQELSYTEGLSLVYMAARLDGGFAAVSRAFHEIRARNPAFQPQTLMDFGSGTGSVTWAAHSIWGQSLREYMCVDRSAAMLVLAEKLLKGGSESGEPYIPGVFFRQFLPVSPKVQFDVVVSAFSLSELPSKADRTEVVQTLWRKTGHFLVLVENGTKAGHSLLMDARDLVLKGKEKSPLDPRPGFVFAPCPHELPCPQLTNLACSFSQAYHPIPFSWNKKPKEEKFSMVILARGSPEEAHRWPRITQPVLKRPRHVHCHLCCPDGHMQHAVLTARRHGRDLYRCARVSSWGDLLPVLTPSAFPPSTAQDPSES
B4: Genetic suppressor element 1 (Homo sapiens), Q14687 (parent)
chain: MKGMSHEPKSPSLGMLSTATRTTATVNPLTPSPLNGALVPSGSPATSSALSAQAAPSSSFAAALRKLAKQAEEPRGSSLSSESSPVSSPATNHSSPASTPKRVPMGPIIVPPGGHSVPSTPPVVTIAPTKTVNGVWRSESRQDAGSRSSSGGRERLIVEPPLPQEKAGGPAIPSHLLSTPYPFGLSPSSVVQDSRFPPLNLQRPVHHVVPPSTVTEDYLRSFRPYHTTDDLRMSSLPPLGLDPATAAAYYHPSYLAPHPFPHPAFRMDDSYCLSALRSPFYPIPTPGSLPPLHPSAMHLHLSGVRYPPELSHSSLAALHSERMSGLSAERLQMDEELRREREREREREREREADREREKEREREREKEREQEKEREREKERERELERQREQRAREKELLAAKALEPSFLPVAELHGLRGHATEERGKPSEQLTPTRAEKLKDAGLQAPKPVQHPLHPVPTPHHTVPSLISNHGIFSLPSSSAATALLIQRTNEEEKWLARQRRLRQEKEDRQSQVSEFRQQVLEQHLDMGRPPVPAEAEHRPESTTRPGPNRHEPGGRDPPQHFGGPPPLISPKPQLHAAPTALWNPVSLMDNTLETRRAESHSLHSHPAAFEPSRQAAVPLVKVERVFCPEKAEEGPRKREPAPLDKYQPPPPPPREGGSLEHQPFLPGPGPFLAELEKSTQTILGQQRASLPQAATFGELSGPLKPGSPYRPPVPRAPDPAYIYDEFLQQRRRLVSKLDLEERRRREAQEKGYYYDLDDSYDESDEEEVRAHLRCVAEQPPLKLDTSSEKLEFLQLFGLTTQQQKEELVAQKRRKRRRMLRERSPSPPTIQSKRQTPSPRLALSTRYSPDEMNNSPNFEEKKKFLTIFNLTHISAEKRKDKERLVEMLRAMKQKALSAAVADSLTNSPRDSPAVSLSEPATQQASLDVEKPVGVAASLSDIPKAAEPGKLEQVRPQELSRVQELAPASGEKARLSEAPGGKKSLSMLHYIRGAAPKDIPVPLSHSTNGKSKPWEPFVAEEFAHQFHESVLQSTQKALQKHKGSVAVLSAEQNHKVDTSVHYNIPELQSSSRAPPPQHNGQQEPPTARKGPPTQELDRDSEEEEEEDDEDGEDEEEVPKRKWQGIEAVFEAYQEHIEEQNLERQVLQTQCRRLEARHYSLSLTAEQLSHSVAELRSQKQKMVSERERLQAELDHLRKCLALPAMHWPRGYLKGYPR
partner: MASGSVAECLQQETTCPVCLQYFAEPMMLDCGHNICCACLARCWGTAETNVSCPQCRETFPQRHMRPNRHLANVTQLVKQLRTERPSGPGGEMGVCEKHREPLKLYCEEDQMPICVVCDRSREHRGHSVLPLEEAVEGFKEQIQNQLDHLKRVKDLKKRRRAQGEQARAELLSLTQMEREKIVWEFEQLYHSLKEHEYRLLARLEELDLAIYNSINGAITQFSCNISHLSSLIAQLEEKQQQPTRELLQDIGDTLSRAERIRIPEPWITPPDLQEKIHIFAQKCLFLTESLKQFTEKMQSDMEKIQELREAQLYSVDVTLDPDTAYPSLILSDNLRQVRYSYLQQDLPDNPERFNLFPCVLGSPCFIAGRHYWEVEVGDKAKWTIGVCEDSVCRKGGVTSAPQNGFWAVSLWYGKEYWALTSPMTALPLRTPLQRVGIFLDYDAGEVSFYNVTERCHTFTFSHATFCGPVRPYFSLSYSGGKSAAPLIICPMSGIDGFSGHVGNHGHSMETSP

Variants of: B1
Conditions: with aspp2_human TP53BP2, Q13625

effect of a mutation on the interaction | Variant
disrupting interaction strength | A349T

Variants of: B2
Conditions: with rgs20_human RGS20, O76081

effect of a mutation on the interaction | Variant
with no effect | P145A

Variants of: B3
Conditions: with sf3b4_human SF3B4, Q15427
Sequence of sf3b4_human SF3B4, Q15427 (Q15427 whole entry): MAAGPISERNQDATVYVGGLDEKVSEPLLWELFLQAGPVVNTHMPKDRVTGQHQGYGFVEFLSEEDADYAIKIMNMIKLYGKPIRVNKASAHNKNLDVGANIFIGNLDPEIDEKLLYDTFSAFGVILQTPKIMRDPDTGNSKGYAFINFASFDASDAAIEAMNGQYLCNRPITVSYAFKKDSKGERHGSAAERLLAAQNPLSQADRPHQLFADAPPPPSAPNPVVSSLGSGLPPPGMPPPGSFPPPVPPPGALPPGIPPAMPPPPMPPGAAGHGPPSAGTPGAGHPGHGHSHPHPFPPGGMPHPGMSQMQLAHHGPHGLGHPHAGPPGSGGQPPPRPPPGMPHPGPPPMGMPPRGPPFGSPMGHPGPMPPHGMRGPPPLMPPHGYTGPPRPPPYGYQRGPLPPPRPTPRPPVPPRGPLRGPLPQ

effect of a mutation on the interaction | Variant
with no effect | R212H

Variants of: B3
Conditions: with mdfi_human MDFI

effect of a mutation on the interaction | Variant
with no effect | R212H

Variants of: B4
Conditions: with tri27_human TRIM27, P14373

effect of a mutation on the interaction | Variant
with no effect | E368K

Variants of: B4
Conditions: with tri27_human TRIM27, P14373
Remark: another data set of the same source

effect of a mutation on the interaction | Variant
with no effect | R503Q
